This note sets out measurements from article PMC11238091.

In assay [1] the target is STMND1-SLD (stathmin-like domain of human STMND1, amino acids 118-276), His6-tagged (human) (UniProt H3BQB6). Briefly: BLI.
The target in assay [2] is S1-STMND1 (human STMND1 lacking the first seven amino acids, amino acids 8-276), His6-tagged (human) (UniProt H3BQB6). The experiment in a line: BLI.

For “Bovine brain tubulin (αβ-tubulin heterodimer) (from UniProt Q6B856 1-445) (complex)”, the figures for the dissociation constant Kd in assay [1] and in assay [2] were 600 nM and 400 nM, respectively.
